According to patent US9994628B2, “Peptides and combination of peptides for use in immunotherapy against various tumors” (IMMATICS BIOTECHNOLOGIES GMBH, priority 2015, dated 2018):

target: HLA-A*02:01 (Homo sapiens, UniProt P04439, D140Y/D185E/D98H/E176V/E277Q/G131W/G231S/I119V/I121R/I166T/I218V/L300P/L318F/N151K/N90K/P208A/P217A/Q86G/Q94H/R138H/R169H/T345S); test: MHC binding assay: UV-ligand exchange and β2m ELISA (peptide exchange yield, Table 7); conditions: binding of HLA-class I restricted peptides to HLA-A*02:01, UV-ligand exchange
Description: Candidate peptides for T cell based therapies according to the present invention were further tested for their MHC binding capacity (affinity). The individual peptide-MHC complexes were produced by UV-ligand exchange, where a UV-sensitive peptide is cleaved upon UV-irradiation, and exchanged with the peptide of interest as analyzed. Only peptide candidates that can effectively bind and stabilize the peptide-receptive MHC molecules prevent dissociation of the MHC complexes. To determine the yield of the exchange reaction, an ELISA was performed based on the detection of the light chain (β2 m) of stabilized MHC complexes. The assay was performed as generally described in Rodenko et al. (Rodenko et al., 2006).
96 well MAXISorp plates (NUNC) were coated over night with 2 ug/ml streptavidin in PBS at room temperature, washed 4× and blocked for 1 h at 37° C. in 2% BSA containing blocking buffer. Refolded HLA-A*02:01/MLA-001 monomers served as standards, covering the range of 15-500 ng/ml. Peptide-MHC monomers of the UV-exchange reaction were diluted 100 fold in blocking buffer. Samples were incubated for 1 h at 37° C., washed four times, incubated with 2 ug/ml HRP conjugated anti-β2 m for 1 h at 37° C., washed again and detected with TMB solution that is stopped with […]. Absorption was measured at 450 nm. Candidate peptides that show a high exchange yield (preferably higher than 50%, most preferred higher than 75%) are generally preferred for a generation and production of antibodies or fragments thereof, and/or T cell receptors or fragments thereof, as they show sufficient avidity to the MHC molecules and prevent dissociation of the MHC complexes.

| Substance | Peptide exchange (MHC class I binding score, peptide exchange yield) |
| --- | --- |
| 142 (LLDAAHASI; listed as Homo sapiens) [compound 142] | ++ (≥20% = ++) |
| 143 (MLWESIMRV; listed as Homo sapiens) [compound 143] | +++ (≥50% = +++) |
| 144 (FLISQTPLL; listed as Homo sapiens) [compound 144] | +++ (≥50% = +++) |
| 145 (ALEEKLENV; listed as Homo sapiens) [compound 145] | +++ (≥50% = +++) |
| 146 (VVAAHLAGA; listed as Homo sapiens) [compound 146] | ++ (≥20% = ++) |
| 147 (GLLSALENV; listed as Homo sapiens) [compound 147] | +++ (≥50% = +++) |
| 148 (YLILSSHQL; listed as Homo sapiens) [compound 148] | +++ (≥50% = +++) |
| 149 (NMADGQLHQV; listed as Homo sapiens) [compound 149] | ++ (≥20% = ++) |
| 150 (VLLDMVHSL; listed as Homo sapiens) [compound 150] | +++ (≥50% = +++) |
| 151 (DISKRIQSL; listed as Homo sapiens) [compound 151] | ++ (≥20% = ++) |
| 153 (KLVELEHTL; listed as Homo sapiens) [compound 153] | +++ (≥50% = +++) |
| 154 (AIIKEIQTV; listed as Homo sapiens) [compound 154] | ++ (≥20% = ++) |
| 155 (TLDSYLKAV; listed as Homo sapiens) [compound 155] | ++ (≥20% = ++) |
| 157 (ILQDGQFLV; listed as Homo sapiens) [compound 157] | ++ (≥20% = ++) |
| 158 (YLDPLWHQL; listed as Homo sapiens) [compound 158] | +++ (≥50% = +++) |
| 159 (QLGPVPVTI; listed as Homo sapiens) [compound 159] | +++ (≥50% = +++) |
| 160 (TLQEWLTEV; listed as Homo sapiens) [compound 160] | +++ (≥50% = +++) |
| 161 (NLLDENVCL; listed as Homo sapiens) [compound 161] | ++++ (≥75% = ++++) |
| 162 (GLLGNLLTSL; listed as Homo sapiens) [compound 162] | +++ (≥50% = +++) |
| 163 (GLEERLYTA; listed as Homo sapiens) [compound 163] | ++ (≥20% = ++) |
| 164 (MLIIRVPSV; listed as Homo sapiens) [compound 164] | +++ (≥50% = +++) |

| Substance | Peptide exchange (MHC class I binding score, peptide exchange yield) |
| --- | --- |
| 165 (SLLDYEVSI; listed as Homo sapiens) [compound 165] | +++ (≥50% = +++) |
| 166 (LLGDSSFFL; listed as Homo sapiens) [compound 166] | +++ (≥50% = +++) |
| 167 (LVVDEGSLVSV; listed as Homo sapiens) [compound 167] | +++ (≥50% = +++) |
| 168 (VIFEGEPMYL; listed as Homo sapiens) [compound 168] | +++ (≥50% = +++) |
| 169 (ALADLSVAV; listed as Homo sapiens) [compound 169] | +++ (≥50% = +++) |
| 170 (FIAAVVEKV; listed as Homo sapiens) [compound 170] | ++ (≥20% = ++) |
| 171 (LLLLDVPTA; listed as Homo sapiens) [compound 171] | ++ (≥20% = ++) |
| 173 (RLIDIYKNV; listed as Homo sapiens) [compound 173] | +++ (≥50% = +++) |
| 174 (ALYSGDLHAA; listed as Homo sapiens) [compound 174] | ++ (≥20% = ++) |
| 175 (SLLDLVQSL; listed as Homo sapiens) [compound 175] | +++ (≥50% = +++) |
| 176 (VQSGLRILL; listed as Homo sapiens) [compound 176] | ++ (≥20% = ++) |
| 177 (ALINVLNAL; listed as Homo sapiens) [compound 177] | +++ (≥50% = +++) |
| 178 (SLVSWQLLL; listed as Homo sapiens) [compound 178] | ++++ (≥75% = ++++) |
| 179 (TLGEIIKGV; listed as Homo sapiens) [compound 179] | +++ (≥50% = +++) |
| 180 (RLYEEEIRI; listed as Homo sapiens) [compound 180] | +++ (≥50% = +++) |
| 181 (LLWAPTAQA; listed as Homo sapiens) [compound 181] | +++ (≥50% = +++) |
| 182 (GLQDGFQITV; listed as Homo sapiens) [compound 182] | +++ (≥50% = +++) |
| 183 (ALSYILPYL; listed as Homo sapiens) [compound 183] | +++ (≥50% = +++) |
| 184 (ALDSTIAHL; listed as Homo sapiens) [compound 184] | ++ (≥20% = ++) |
| 185 (TLYQGLPAEV; listed as Homo sapiens) [compound 185] | ++ (≥20% = ++) |
| 187 (SILKEDPFL; listed as Homo sapiens) [compound 187] | ++ (≥20% = ++) |

| Substance | Peptide exchange (MHC class I binding score, peptide exchange yield) |
| --- | --- |
| 188 (VLGEEQEGV; listed as Homo sapiens) [compound 188] | ++ (≥20% = ++) |
| 190 (SLSTELFKV; listed as Homo sapiens) [compound 190] | +++ (≥50% = +++) |
| 191 (AAIEIFEKV; listed as Homo sapiens) [compound 191] | +++ (≥50% = +++) |
| 192 (TLLPSSGLVTL; listed as Homo sapiens) [compound 192] | ++ (≥20% = ++) |
| 193 (ALFHMNILL; listed as Homo sapiens) [compound 193] | +++ (≥50% = +++) |
| 194 (KLLEEVQLL; listed as Homo sapiens) [compound 194] | ++ (≥20% = ++) |
| 195 (VIIQNLPAL; listed as Homo sapiens) [compound 195] | +++ (≥50% = +++) |
| 198 (ILTNKVVSV; listed as Homo sapiens) [compound 198] | ++ (≥20% = ++) |
| 199 (SVADLAHVL; listed as Homo sapiens) [compound 199] | ++ (≥20% = ++) |
| 200 (IMPTFDLTKV; listed as Homo sapiens) [compound 200] | +++ (≥50% = +++) |
| 203 (FLFVDPELV; listed as Homo sapiens) [compound 203] | ++ (≥20% = ++) |
| 204 (SEWGSPHAAVP; listed as Homo sapiens) [compound 204] | +++ (≥50% = +++) |
| 206 (GLDAFRIFL; listed as Homo sapiens) [compound 206] | ++++ (≥75% = ++++) |
| 207 (KLFETVEEL; listed as Homo sapiens) [compound 207] | +++ (≥50% = +++) |
| 208 (HLNNDRNPL; listed as Homo sapiens) [compound 208] | ++ (≥20% = ++) |
| 210 (GLAGDNIYL; listed as Homo sapiens) [compound 210] | +++ (≥50% = +++) |
| 211 (LLTTVLINA; listed as Homo sapiens) [compound 211] | +++ (≥50% = +++) |
| 212 (MTLSEIHAV; listed as Homo sapiens) [compound 212] | ++ (≥20% = ++) |
| 213 (ILAVDGVLSV; listed as Homo sapiens) [compound 213] | +++ (≥50% = +++) |
